# Test results from article PMC2064291.
# Biological target: vitronectin (urea-purified)
# Assay: solid-phase binding assay
row,Substance,fold reduction in binding [fold]
1,soluble uPAR I63A (from UniProt Q03405 23-305) (domain or fragment),> 5
2,soluble uPAR Y92A (from UniProt Q03405 23-305) (domain or fragment),> 5
3,soluble uPAR R91A (from UniProt Q03405 23-305) (domain or fragment),> 5

# Now from value to substance:
row,fold reduction in binding [fold],Substance
1,> 5,soluble uPAR W32A (from UniProt Q03405 23-305) (domain or fragment)
2,> 5,soluble uPAR R58A (from UniProt Q03405 23-305) (domain or fragment)
